Experiments:
Assay in all cases: EMSA; not stated; EMSA performed as in a previous study (ref 68)
MBP-SlEIL4 = MBP-SlEIL4 (Solanum lycopersicum (tomato), UniProt A0A3Q7GZH0 1-605); settings: protein: recombinant; tags: MBP (pMAL-c5G); label: 5' biotin; blunt
MBP-SlEIL1 = target: T1, MBP-SlEIL1 (Solanum lycopersicum (tomato), UniProt Q94FV4 1-610); settings: protein: recombinant; tags: MBP (pMAL-c5G); chain copies: 2; label: 5' biotin; blunt
T1 sequence: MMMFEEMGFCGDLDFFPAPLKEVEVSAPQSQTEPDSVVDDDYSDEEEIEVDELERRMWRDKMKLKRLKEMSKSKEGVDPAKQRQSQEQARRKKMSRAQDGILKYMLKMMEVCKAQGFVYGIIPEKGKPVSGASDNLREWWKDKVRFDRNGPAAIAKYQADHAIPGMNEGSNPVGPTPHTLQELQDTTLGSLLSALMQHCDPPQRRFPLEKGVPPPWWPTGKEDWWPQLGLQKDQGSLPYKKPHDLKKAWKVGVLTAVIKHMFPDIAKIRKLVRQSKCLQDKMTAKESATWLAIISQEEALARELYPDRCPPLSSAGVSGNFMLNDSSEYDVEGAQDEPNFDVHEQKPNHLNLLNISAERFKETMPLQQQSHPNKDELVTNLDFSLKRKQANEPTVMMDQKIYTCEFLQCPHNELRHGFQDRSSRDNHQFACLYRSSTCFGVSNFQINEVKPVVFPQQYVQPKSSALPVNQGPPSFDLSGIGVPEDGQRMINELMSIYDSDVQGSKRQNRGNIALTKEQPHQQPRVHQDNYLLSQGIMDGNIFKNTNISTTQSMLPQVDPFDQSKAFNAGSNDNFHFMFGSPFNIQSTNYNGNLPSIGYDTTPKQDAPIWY

MBP-SlEIL2 = target: T2, MBP-SlEIL2 (Solanum lycopersicum (tomato), UniProt Q94FV3 1-614); settings: protein: recombinant; tags: MBP (pMAL-c5G); chain copies: 2; label: 5' biotin; blunt
T2 sequence: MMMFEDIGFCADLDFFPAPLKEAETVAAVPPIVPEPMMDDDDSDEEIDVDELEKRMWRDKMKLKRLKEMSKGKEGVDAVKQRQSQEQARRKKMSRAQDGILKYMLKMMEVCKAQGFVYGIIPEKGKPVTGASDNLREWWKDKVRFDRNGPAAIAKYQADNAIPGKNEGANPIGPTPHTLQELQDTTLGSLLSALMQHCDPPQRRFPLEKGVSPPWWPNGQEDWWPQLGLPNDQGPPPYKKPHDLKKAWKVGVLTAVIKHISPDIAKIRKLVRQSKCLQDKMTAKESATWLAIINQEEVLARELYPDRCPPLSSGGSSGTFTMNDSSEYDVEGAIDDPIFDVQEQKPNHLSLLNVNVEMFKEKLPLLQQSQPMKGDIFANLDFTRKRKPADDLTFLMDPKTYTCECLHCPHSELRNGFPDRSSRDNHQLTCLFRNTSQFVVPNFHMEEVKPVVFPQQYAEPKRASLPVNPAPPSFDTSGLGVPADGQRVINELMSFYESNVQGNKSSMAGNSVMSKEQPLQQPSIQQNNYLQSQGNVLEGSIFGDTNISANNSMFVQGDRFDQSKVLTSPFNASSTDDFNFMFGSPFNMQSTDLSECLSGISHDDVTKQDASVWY

MBP-SlEIL3 = target: T3, MBP-SlEIL3 (Solanum lycopersicum (tomato), UniProt Q94FV2 1-601); settings: protein: recombinant; tags: MBP (pMAL-c5G); chain copies: 2; label: 5' biotin; blunt
T3 sequence: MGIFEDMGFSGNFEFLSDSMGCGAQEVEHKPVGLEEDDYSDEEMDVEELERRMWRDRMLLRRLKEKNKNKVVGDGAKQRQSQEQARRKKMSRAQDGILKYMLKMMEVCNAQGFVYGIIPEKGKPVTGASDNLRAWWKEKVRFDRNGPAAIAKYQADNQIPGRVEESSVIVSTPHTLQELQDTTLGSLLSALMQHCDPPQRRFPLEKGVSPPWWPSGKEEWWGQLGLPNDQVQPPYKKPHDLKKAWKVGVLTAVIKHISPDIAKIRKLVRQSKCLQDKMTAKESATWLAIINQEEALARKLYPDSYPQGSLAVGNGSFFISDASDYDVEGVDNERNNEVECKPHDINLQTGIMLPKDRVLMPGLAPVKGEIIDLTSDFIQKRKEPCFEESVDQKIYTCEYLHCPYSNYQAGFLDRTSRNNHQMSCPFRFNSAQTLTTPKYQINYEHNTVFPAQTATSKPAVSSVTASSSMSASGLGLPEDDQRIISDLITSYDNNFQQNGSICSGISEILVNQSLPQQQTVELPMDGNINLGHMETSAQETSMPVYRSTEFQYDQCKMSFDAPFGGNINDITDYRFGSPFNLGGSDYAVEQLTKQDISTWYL

Measured: binding result

B1: SlERF.D2 promoter EBS probe WT (dsDNA)
DNA 1: GTTATAACAGACATACATGCGCTAATATCG
DNA 2: CGATATTAGCGCATGTATGTCTGTTATAAC
binds: all assays above

— article PMC12861479, “SlERF.D2-mediated antagonism between ethylene and ABA signaling pathways modulates osmotic stress adaptation in tomato”
